Laboratory results reported in doi:10.1101/2024.05.31.596772 (2024).

Target: microtubules (pig (purified from porcine brain))
Sequence (chain, as listed by the source, chain 1 of 2): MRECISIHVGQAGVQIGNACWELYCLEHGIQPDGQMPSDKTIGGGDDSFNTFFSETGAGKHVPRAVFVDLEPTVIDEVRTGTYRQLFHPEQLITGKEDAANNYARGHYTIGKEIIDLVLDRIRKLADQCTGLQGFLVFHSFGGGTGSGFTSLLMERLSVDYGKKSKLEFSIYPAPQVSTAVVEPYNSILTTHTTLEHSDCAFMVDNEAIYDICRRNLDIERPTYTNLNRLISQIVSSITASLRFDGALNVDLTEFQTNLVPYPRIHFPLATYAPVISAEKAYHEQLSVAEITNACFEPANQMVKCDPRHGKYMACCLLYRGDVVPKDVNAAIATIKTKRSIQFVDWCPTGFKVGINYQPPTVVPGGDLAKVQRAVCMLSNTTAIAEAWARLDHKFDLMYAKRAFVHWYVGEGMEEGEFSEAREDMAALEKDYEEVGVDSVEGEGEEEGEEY
Sequence (chain, as listed by the source, chain 2 of 2): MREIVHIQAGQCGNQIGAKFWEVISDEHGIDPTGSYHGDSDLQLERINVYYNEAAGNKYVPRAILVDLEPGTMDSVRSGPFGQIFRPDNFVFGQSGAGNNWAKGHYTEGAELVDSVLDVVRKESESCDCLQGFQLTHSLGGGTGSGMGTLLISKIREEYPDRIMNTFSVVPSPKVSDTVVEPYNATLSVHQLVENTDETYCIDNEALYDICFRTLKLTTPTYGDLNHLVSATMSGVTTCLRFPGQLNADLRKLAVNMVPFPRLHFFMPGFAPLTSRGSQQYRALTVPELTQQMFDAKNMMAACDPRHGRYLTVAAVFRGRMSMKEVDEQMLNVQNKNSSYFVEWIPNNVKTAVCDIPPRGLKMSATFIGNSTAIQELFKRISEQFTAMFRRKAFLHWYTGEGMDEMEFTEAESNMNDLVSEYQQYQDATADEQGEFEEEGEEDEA

Kd: 2140 nM
B1: GFP-CAMSAP3 CKK (domain or fragment)
chain: GPRLYKEPSAKSNKFIIHNALSHCCLAGKVNEPQKNRILEEIEKSKANHFLILFRDSSCQFRALYTLSGETEELSRLAGYGPRTVTPAMVEGIYKYNSDRKRFTQIPAKTMSMSVDAFTIQGHLWQSKKPTTPKK
